Results reported in paper PMC5288973.

Molecular target: taxol-stabilized microtubules assembled from bovine brain tubulin (bovine) (UniProt Q6B856)
Experiment: co-sedimentation; various amounts of MBP-GPT2 with a constant amount of taxol-stabilized MTs polymerized from 1 uM tubulin heterodimer; fit of q = (qmax x c)/(Kd + c), one GPT2 binding site on the tubulin dimer assumed

stoichiometry N (mol of GPT2 per mol of tubulin dimer): 2.5
Substance: MBP-GPT2 (full-length Growing Plus-end Tracking protein 2 fused to maltose-binding protein) (from UniProt Q94B38 69-388) (natural protein)
